Test [1] has as its target T1, glutaraldehyde polymerized Aβ1-42 (oligomeric Aβ1-42) (UniProt P05067 672-713).
T1 construct: domain: Aβ1-42
Nature of the test: SPR, polymerized Aβ1-42 immobilised, antibody injected. (SPR reads the build-up and loss of mass on a sensor chip optically.)

The target of another test is T2, Aβ1-40.
T2 construct: also called Aβ1-40 as loaded on the gel (not polymerized)
Briefly: immunoblot after SDS-PAGE, antigen on nitrocellulose, anti-mouse IgM detection.

Another test deals with T3, Aβ40p (Covalently polymerized with glutaraldehyde into stable oligomers. The cross-links between copies cannot be carried by the letters, so only the monomer unit is given.).
T3 construct: also called Aβ1-40 polymerized; Aβ1-40 polymerized with glutaraldehyde
The test is described as above.

B1: anti-β-sheet conformational monoclonal antibody (aβComAb) GW-23B7 (antibody)
heavy: EVQLQQSVAELVRPGASVKLSCTASGFNIKNTYMHWVKQRPEQGLEWIGRIDPANGNTKYAPKFQGKATITADTSSNTAYLQLSSLTSEDTAIYYCARGSFYAMDYWGQGTSVTVSSESQSFPNVFPLVSCESPLSDKNLVAMGCLARDFLPSTISFTWNYQNNTEVIQGIRTFPTLRTGGKYLATSQVLLSPKSILEGSDEYLVCKIHYGGKNRDLHVPIPAVAEMNPNVNVFVPPRDGFSGPAPRKSKLICEATNFTPKPITVSWLKDGKLVESGFTTDPVTIENKGSTPQTYKVISTLTISEIDWLNLNVYTCRVDHRGLTFLKNVSSTCAASPSTDILTFTIPPSFADIFLSKSANLTCLVSNLATYETLNISWASQSGEPLETKIKIMESHPNGTFSAKGVASVCVEDWNNRKEFVCTVTHRDLPSPQKKFISKPNEVHKHPPAVYLLPPAREQLNLRESATVTCLVKGFSPADISVQWLQRGQLLPQEKYVTSAPMPEPGAPGFYFTHSILTVTEEEWNSGETYTCVVGHEALPHLVTERTVDKSTGKPTLYNVSLIMSDTGGTCY
light: DVQITQSPSYLAASPGETITINCRASKSINKYLAWYQEKPGKTNKLLIYSGSTLQSGIPSRFSGSGSGTDFTLTISSLEPEDFAMYHCQQHNEYPWTFGGGTKLEIKRADAAPTVSIFPPSSEQLTSGGASVVCFLNNFYPRDINVKWKIDGSERQNGVLNSWTDQDSKDSTYSMSSTLTLTKDEYERHNSYTCEATHKTSTSPIVKSFNRNEC
A word on the Kd: it is the concentration at which binding is half-saturated. In test [1], B1 came in with a Kd of 14 nM. Moreover, the binding result with Aβ1-40 and with Aβ40p was “binds” throughout.

(Values after US20190256612A1 (NEW YORK UNIVERSITY, published 2019).)
